Source: patent US20130209464A1

Molecular target: HIV-1 MN strain envelope (Env) on Env-pseudotyped virus (HIV-1 MN strain) (UniProt P05877)
Assay: cell-based or functional assay

HIV-1 MN strain envelope (Env) on Env-pseudotyped virus (HIV-1 MN strain), sequence (P05877 32-856 limits assumed): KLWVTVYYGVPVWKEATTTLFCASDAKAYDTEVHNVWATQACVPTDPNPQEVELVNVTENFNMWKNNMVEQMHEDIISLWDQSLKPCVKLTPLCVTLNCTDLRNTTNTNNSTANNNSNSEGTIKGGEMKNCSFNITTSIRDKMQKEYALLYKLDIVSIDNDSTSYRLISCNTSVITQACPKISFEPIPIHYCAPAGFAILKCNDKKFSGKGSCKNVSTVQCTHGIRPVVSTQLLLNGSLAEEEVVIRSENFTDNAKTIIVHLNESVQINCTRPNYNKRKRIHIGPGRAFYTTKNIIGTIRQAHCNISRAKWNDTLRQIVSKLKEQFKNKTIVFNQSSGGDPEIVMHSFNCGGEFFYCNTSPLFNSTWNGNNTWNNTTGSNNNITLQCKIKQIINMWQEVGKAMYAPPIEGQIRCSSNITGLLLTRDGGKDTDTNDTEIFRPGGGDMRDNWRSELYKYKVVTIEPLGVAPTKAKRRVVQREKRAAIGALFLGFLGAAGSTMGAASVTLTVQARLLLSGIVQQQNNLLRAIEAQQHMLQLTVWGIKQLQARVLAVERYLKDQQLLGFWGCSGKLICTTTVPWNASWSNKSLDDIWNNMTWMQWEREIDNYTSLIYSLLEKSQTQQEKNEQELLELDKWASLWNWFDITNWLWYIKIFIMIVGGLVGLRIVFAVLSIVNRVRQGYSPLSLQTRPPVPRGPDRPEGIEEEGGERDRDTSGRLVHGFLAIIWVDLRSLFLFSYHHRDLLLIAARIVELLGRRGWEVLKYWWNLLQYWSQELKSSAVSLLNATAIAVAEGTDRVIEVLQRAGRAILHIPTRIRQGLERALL

## native actinohivin (AH) polypeptide (from UniProt Q9KWN0 47-160)
  50% inhibitory concentration (IC50), neutralization of Env-pseudotyped virus, TZM-bl luciferase reporter assay: 0.5 mg/L
